Measured values: PMC4422553

Molecular target: His6-tagged Rev-A IN (reticuloendotheliosis virus strain A integrase) (reticuloendotheliosis virus strain A (Rev-A))
Sequence (P03360 752-1152 limits assumed): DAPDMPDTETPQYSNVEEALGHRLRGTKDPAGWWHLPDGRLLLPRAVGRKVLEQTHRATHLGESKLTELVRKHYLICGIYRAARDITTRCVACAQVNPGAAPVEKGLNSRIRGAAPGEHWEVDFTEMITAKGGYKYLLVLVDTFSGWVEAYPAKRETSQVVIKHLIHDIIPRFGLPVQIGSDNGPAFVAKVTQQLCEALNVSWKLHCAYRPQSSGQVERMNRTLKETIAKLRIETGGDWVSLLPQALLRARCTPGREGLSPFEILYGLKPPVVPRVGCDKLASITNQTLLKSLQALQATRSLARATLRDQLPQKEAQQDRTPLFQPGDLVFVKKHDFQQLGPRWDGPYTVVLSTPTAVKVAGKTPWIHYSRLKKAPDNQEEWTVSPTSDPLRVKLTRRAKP

In the case of “BRD4(462-720), C-terminal fragment of human BRD4 that contains the ET domain (from UniProt O60885-2 462-720) (domain or fragment)”, the concerted integration (DNA strand transfer) activity of Rev-A IN in vitro with 0.05, 0.15, 0.35, 0.5 μM BRD4 (462–720), against the activity without BRD4 protein is reported as 5 fold.
